PMC8669763

Biological target: HLA-B*51:01 (human | human (endogenous in 721.221))

Chain of KIR3DL1 (P43629 22-444): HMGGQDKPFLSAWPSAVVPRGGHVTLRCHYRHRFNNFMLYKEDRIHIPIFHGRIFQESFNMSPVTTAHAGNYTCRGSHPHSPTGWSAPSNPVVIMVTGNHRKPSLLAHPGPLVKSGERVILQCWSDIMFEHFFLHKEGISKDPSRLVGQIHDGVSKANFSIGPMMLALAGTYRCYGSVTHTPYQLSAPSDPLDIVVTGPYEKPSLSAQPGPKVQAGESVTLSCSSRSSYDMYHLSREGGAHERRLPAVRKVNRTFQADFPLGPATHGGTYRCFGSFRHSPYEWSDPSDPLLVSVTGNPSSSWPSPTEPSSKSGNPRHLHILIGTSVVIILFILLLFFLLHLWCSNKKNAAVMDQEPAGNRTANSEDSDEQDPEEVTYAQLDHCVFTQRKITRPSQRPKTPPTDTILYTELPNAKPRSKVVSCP

How did the degranulation: mean frequency of CD107a+ cells in the KIR3DL1 single positive NK subset after co-culture (1:1, 3 hours) with 221-B*51:01-shERAP1 (% CD107a+ cells) turn out when “KIR3DL1 (from UniProt P43629 22-444) (receptor)” was run?
Its degranulation: mean frequency of CD107a+ cells in the KIR3DL1 single positive NK subset after co-culture (1:1, 3 hours) with 221-B*51:01-shERAP1 (% CD107a+ cells) is 25.8.
